# Test results published in the DeepSol protein solubility set.
# Assay: soluble on expression in E. coli; label from the status in PepcDB or PDB records
row,Sequence,soluble on expression in E. coli
1,MPPLFHPHLVNGPFDDPGLYVDFLFERRAVLFDLGDTAPLPPRKVLRLSHIFVSHTHVDHFIGFDRVVRLCLGREKRLHLLGPPGFVDQVAARLAGYTWNLVETFPTDFTLAAAELHPDGSVHSAEFHCLAAFSRDNERRDRAAGGVLLDEEAFRVRSVFLDHGIPCLAFALEEKNHVHILKNRLREAGLPTGAWLAELKRAILGGRDDGEPFRAWWRDGGKECEAWFPLGELRERFTKTVAGQKIVYVTDAAPTPENRRLIVELAAGADYLFIEAPFLDEERERAGDRCHLTARIAGELGRDAGVARVVPFHFSPRYMGRESLLRDEVERAFRGLEHHHHHH,not soluble
2,MPPRKIKKDPAVVAMADTLETRVKDLLEEYKKKLREVALQTAKAESDRIIATIKPKYRDMPIMEFLASPPDDFYIESGEEEEEGEAAVAVKQELPSEPDMEIDDAAAAQKTSIPIGQNSGRNTVQVKQEPEIDDDAAHETSIPIAPSGQNSGRNTAADEHRRNEIITPAGQVLPLPTLQPEKPFRAPHVDEEIAFSVNGSPLVLAGRTTATAAGKENRKKSKKSGAASKKAAAAAGPLQPETENAGTSV,not soluble
3,MPQSFTSIARIGDYILKSPVLSKLCVPVANQFINLAGYKKLGLKFDDLIAEENPIMQTALRRLPEDESYARAYRIIRAHQTELTHHLLPRNEWIKAQEDVPYLLPYILEAEAAAKEKDELDNIEVSK,soluble
4,MPRISKRQLILESAAAIINEKGADYLTLDAVAQRAGISKGGLFYHFKSKDELIKELVNYANNLYRDNVNQHIGNEKNKKGQWLNAFIEATRAHRTDNAPITSGMLAAQGTNRSLLSPLKTSYQEWQYQITHDGLDEVDATIIRLAVDGLWLSEIFGISAIDEEMREKVIERLKMQIEKN,not soluble
5,MPRPSQRLLSPEIITEAAMRMVDLTGDFTMPGLAERLKVRPSSLYNHVSGRAEIIELMRARMMAGIVVADPDGKWSETVAGLAREYRRNYAEHPRLIPLFTAHTVQSGVAFGLYNALAQAFSDGGFTPEEILHAITTVDSFVLGSALDLAAPEVVWATAPEANEAMLAALATSGPNPGRADAAFEFGLRTLIAGLVAQAPIEP,not soluble
6,MPRSTWFKALLLLVALWAPLSQAETGWQPIQETIRKSDKDNRQYQAIRLDNGMVVLLVSDPQAVKSLSALVVPVGSLEDPEAYQGLAHYLEHMSLMGSKKYPQADSLAEYLKMHGGSHNASTAPYRTAFYLEVENDALPGAVDRLADAIAEPLLDKKYAERERNAVNAELTMARTRDGMRMAQVSAETINPAHPGSKFSGGNLETLSDKPGNPVQQALKDFHEKYYSANLMKAVIYSNKPLPELAKMAADTFGRVPNKESKKPEITVPVVTDAQKGIIIHYVPALPRKVLRVEFRIDNNSAKFRSKTDELITYLIGNRSPGTLSDWLQKQGLVEGISANSDPIVNGNSGVLAISASLTDKGLANRDQVVAAIFSYLNLLREKGIDKQYFDELANVLDIDFRYPSITRDMDYVEWLADTMIRVPVEHTLDAVNIADRYDAKAVKERLAMMTPQNARIWYISPKEPHNKTAYFVDAPYQVDKISAQTFADWQKKAADIALSLPELNPYIPDDFSLIKSEKKYDHPELIVDESNLRVVYAPSRYFASEPKADVSLILRNPKAMDSARNQVMFALNDYLAGLALDQLSNQASVGGISFSTNANNGLMVNANGYTQRLPQLFQALLEGYFSYTATEDQLEQAKSWYNQMMDSAEKGKAFEQAIMPAQMLSQVPYFSRDERRKILPSITLKEVLAYRDALKSGARPEFMVIGNMTEAQATTLARDVQKQLGADGSEWCRNKDVVVDKKQSVIFEKAGNSTDSALAAVFVPTGYDEYTSSAYSSLLGQIVQPWFYNQLRTEEQLGYAVFAFPMSVGRQWGMGFLLQSNDKQPSFLWERYKAFFPTAEAKLRAMKPDEFAQIQQAVITQMLQAPQTLGEEASKLSKDFDRGNMRFDSRDKIVAQIKLLTPQKLADFFHQAVVEPQGMAILSQISGSQNGKAEYVHPEGWKVWENVSALQQTMPLMSEKNE,soluble
